This assay concerns the target Calcineurin (CN) of HeLa cells, endogenous. As to the kind of experiment: cell-based or functional assay.

In the case of GFP-LxVPc1 fusion protein, the percentage of cells with cytosolic NFATc2 staining after calcium ionophore is 77%.
Under GFP-VIVIT fusion protein stands 92%.

These data come from patent publication US20100081624A1, “SELECTIVE PEPTIDES THAT INHIBIT THE BIOLOGICAL ACTIVITY OF CALCINEURIN” (Consejo Superior de Investigaciones Cientficas, priority 2005, published 2010).
